Experimental data: PMC4926278

Columns and labels:
[1] = target: Vpu-S52/56D, full-length Vpu (NL4-3) double mutant (HIV-1 strain NL4-3); assay: SEC; time-dependent SEC from a stock solution over up to 12 days in 50 mM NaCl buffer; peak area P1/(P1+P2) over time fitted with a logistic growth function (dimer to higher oligomer)
[2] = target: Vpu-S52/56N, full-length Vpu (NL4-3) double mutant (HIV-1 strain NL4-3); assay: as above

| Substance | growth rate c of the higher oligomer (logistic fit of P1/(P1+P2) over time) [1] | growth rate c of the higher oligomer (logistic fit of P1/(P1+P2) over time) [2] |
| --- | --- | --- |
| Vpu-S52/56D, full-length Vpu (NL4-3) double mutant (natural protein) | 0.56 day^−1 |  |
| Vpu-S52/56N, full-length Vpu (NL4-3) double mutant (natural protein) |  | 1.05 day^−1 |
